Reference: paper PMC8463545, “The predatory soil bacterium Lysobacter reprograms quorum sensing system to regulate antifungal antibiotic production in a cyclic-di-GMP-independent manner” (Communications Biology, 2021)

T1: RpfG-MBP (Lysobacter enzymogenes)
T1 chain: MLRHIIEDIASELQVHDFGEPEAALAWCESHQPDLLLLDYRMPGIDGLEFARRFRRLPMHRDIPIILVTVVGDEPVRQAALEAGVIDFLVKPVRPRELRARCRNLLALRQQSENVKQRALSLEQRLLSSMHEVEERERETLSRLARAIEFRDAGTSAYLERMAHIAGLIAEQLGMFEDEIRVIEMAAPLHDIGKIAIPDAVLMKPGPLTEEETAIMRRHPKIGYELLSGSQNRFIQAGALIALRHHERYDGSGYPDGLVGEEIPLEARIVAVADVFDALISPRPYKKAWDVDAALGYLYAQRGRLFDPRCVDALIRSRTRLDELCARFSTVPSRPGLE


Key:
Settings in all cases: both partners purified
HtsH2C-HA-His = HtsH2C-HA-His (Lysobacter enzymogenes); test: SPR; HtsH cytoplasmic fragments against each other (Supplementary Fig. 5); who was immobilised and conditions not told
HtsH3C-Myc-His = HtsH3C-Myc-His (Lysobacter enzymogenes); test: as above
RpfG-MBP = molecular target: T1, RpfG-MBP; test: SPR; RpfG-MBP on the sensor, HtsH cytoplasmic fragments bound to it; conditions not given

Row | Binder | Kd (HtsH2C-HA-His) [nM] | Kd (HtsH3C-Myc-His) [nM] | Kd (RpfG-MBP) [nM]
1 | HtsH1C-Flag-His (domain or fragment, Phosphorylated as purified (CIAP-sensitive). Limits from the expression primers: (M)AKTRFL... to ...LFEREA, just before the His-kinase domain to the C-terminus. The start codon Met and Flag/His tags …) not shown | 96.2 | 160 | 66.8
2 | HtsH2C-HA-His (domain or fragment, Phosphorylated as purified (CIAP-sensitive). Primers give (M)AKTRFL... to ...DAADAP (C-terminus). The candidate lists no features, so the start is estimated from the paralogues' fragment lengths and …) not shown |  | 178 | 300
3 | HtsH3C-Myc-His (domain or fragment, Phosphorylated as purified (CIAP-sensitive). Primers give (M)AKTRFL... to ...ARRGEG (C-terminus). Positions are inferred from the candidate's His-kinase domain start. Assignment of this entry to …) not shown |  |  | 168
